± gives the standard deviation of the averaged measurements.
B1: library; a variant is named by its letters at N, in order (parent)
chain: GCUGUCACCGGUGUAUUACCCUAGUGGUCGACCGGUCUGAUGAGUCUNNNNNNAGACGAAACAGC

Legend:
hypoxanthine [1] = variants of: B1; experiment: normalized RNA/DNA level with ligand (relative to sTRSVctl = 100) (log10 (% of sTRSVctl)); ligand: hypoxanthine (xanthine aptamer); higher = less ribozyme self-cleavage, higher mRNA level; settings: ligand concentration (+) RNA-Seq: 5 mM, HEK293T, reporter: mCherry (pCS4076), ligand present: yes
Method in brief: (§1)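 HEK293T cells were transfected with library plasmids carrying ribozyme switches linked to an mCherry reporter, or an eGFP reporter in some ligand experiments, at 4 µg per well of a 6-well plate, with any ligand added 1 h beforehand. After 72 h, total RNA was extracted with EDTA, reverse-transcribed, amplified, barcoded and sequenced. RNA level was defined as RNA reads over DNA reads, normalized to a spiked-in non-cleaving sequence or to the top-ranked sequences. That value was multiplied by 100 and converted to log10, the top set was 25 sequences, and only sequences with ≥100 DNA reads were retained.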

hypoxanthine [2] = variants of: B1; experiment: normalized RNA/DNA level without ligand (relative to sTRSVctl = 100) (log10 (% of sTRSVctl)); ligand: hypoxanthine (xanthine aptamer); higher = less ribozyme self-cleavage, higher mRNA level; settings: HEK293T, reporter: mCherry (pCS4076), ligand present: no
Method in brief: as §1

| Variant | normalized RNA/DNA level with ligand (log10) (hypoxanthine [1]) | normalized RNA/DNA level without ligand (log10) (hypoxanthine [2]) |
| --- | --- | --- |
| GCUGUCACCGGUGUAUUACCCUAGUGGUCGACCGGUCUGAUGAGUCUCGGCUUAGACGAAACAGC [CGGCUU] | 2.05 ± 0.038 | 1.93 ± 0.02 |
| GCUGUCACCGGUGUAUUACCCUAGUGGUCGACCGGUCUGAUGAGUCUGCGAUAAGACGAAACAGC [GCGAUA] | 1.88 ± 0.083 | 1.594 ± 0.0079 |
| GCUGUCACCGGUGUAUUACCCUAGUGGUCGACCGGUCUGAUGAGUCUCGGCCAAGACGAAACAGC [CGGCCA] | 1.96 ± 0.056 | 1.95 ± 0.027 |
| GCUGUCACCGGUGUAUUACCCUAGUGGUCGACCGGUCUGAUGAGUCUGGCAUUAGACGAAACAGC [GGCAUU] | 1.958 ± 0.0075 | 1.925 ± 0.0063 |
| GCUGUCACCGGUGUAUUACCCUAGUGGUCGACCGGUCUGAUGAGUCUACCGACAGACGAAACAGC [ACCGAC] | 1.967 ± 0.0065 | 1.825 ± 0.017 |
| GCUGUCACCGGUGUAUUACCCUAGUGGUCGACCGGUCUGAUGAGUCUAACUUCAGACGAAACAGC [AACUUC] | 1.96 ± 0.023 | 1.96 ± 0.023 |
| GCUGUCACCGGUGUAUUACCCUAGUGGUCGACCGGUCUGAUGAGUCUUUGCACAGACGAAACAGC [UUGCAC] | 1.96 ± 0.051 | 1.9 ± 0.038 |
| GCUGUCACCGGUGUAUUACCCUAGUGGUCGACCGGUCUGAUGAGUCUUUACAAAGACGAAACAGC [UUACAA] | 1.96 ± 0.022 | 1.796 ± 0.012 |
| GCUGUCACCGGUGUAUUACCCUAGUGGUCGACCGGUCUGAUGAGUCUCGAUGUAGACGAAACAGC [CGAUGU] | 1.98 ± 0.04 | 1.878 ± 0.016 |
| GCUGUCACCGGUGUAUUACCCUAGUGGUCGACCGGUCUGAUGAGUCUCACUAGAGACGAAACAGC [CACUAG] | 1.901 ± 0.0088 | 1.759 ± 0.0057 |
| GCUGUCACCGGUGUAUUACCCUAGUGGUCGACCGGUCUGAUGAGUCUAGUGGGAGACGAAACAGC [AGUGGG] | 1.89 ± 0.076 | 1.543 ± 0.007 |
| GCUGUCACCGGUGUAUUACCCUAGUGGUCGACCGGUCUGAUGAGUCUGGAAAUAGACGAAACAGC [GGAAAU] | 1.9 ± 0.071 | 1.77 ± 0.053 |
| GCUGUCACCGGUGUAUUACCCUAGUGGUCGACCGGUCUGAUGAGUCUCCUAUGAGACGAAACAGC [CCUAUG] | 1.92 ± 0.13 | 1.86 ± 0.083 |
| GCUGUCACCGGUGUAUUACCCUAGUGGUCGACCGGUCUGAUGAGUCUAGCCCUAGACGAAACAGC [AGCCCU] | 1.94 ± 0.03 | 1.932 ± 0.013 |
| GCUGUCACCGGUGUAUUACCCUAGUGGUCGACCGGUCUGAUGAGUCUUAGCACAGACGAAACAGC [UAGCAC] | 1.927 ± 0.0061 | 1.8 ± 0.018 |
| GCUGUCACCGGUGUAUUACCCUAGUGGUCGACCGGUCUGAUGAGUCUUCAUUCAGACGAAACAGC [UCAUUC] | 2.0015 ± 0.00059 | 1.9887 ± 0.00019 |
| GCUGUCACCGGUGUAUUACCCUAGUGGUCGACCGGUCUGAUGAGUCUAUCAGCAGACGAAACAGC [AUCAGC] | 1.94 ± 0.024 | 1.95 ± 0.047 |
| GCUGUCACCGGUGUAUUACCCUAGUGGUCGACCGGUCUGAUGAGUCUUAUGAAAGACGAAACAGC [UAUGAA] | 1.915 ± 0.013 | 1.73 ± 0.023 |
| GCUGUCACCGGUGUAUUACCCUAGUGGUCGACCGGUCUGAUGAGUCUGAAAUUAGACGAAACAGC [GAAAUU] | 1.95 ± 0.046 | 1.87 ± 0.039 |
| GCUGUCACCGGUGUAUUACCCUAGUGGUCGACCGGUCUGAUGAGUCUCCACAUAGACGAAACAGC [CCACAU] | 1.92 ± 0.11 | 1.79 ± 0.049 |
| GCUGUCACCGGUGUAUUACCCUAGUGGUCGACCGGUCUGAUGAGUCUGGGCCUAGACGAAACAGC [GGGCCU] | 2.06 ± 0.045 | 2.014 ± 0.0022 |

From the supplement of paper PMC6757056
